Reference: the supplement of paper PMC9170038

Test system: MS2 coat protein
Test: apparent KD of MS2 coat protein; designed switch direction (-1 OFF switch, 1 ON switch): -1; higher = weaker reporter binding
Summary of the method: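 Designed RNA switches sharing common flanks were transcribed on Illumina chips by stalled E. coli RNA polymerase. They were titrated with SNAP-549-labelled MS2 coat protein, from 0.7 or 1.5 nM doubling to 3 µM, in Tris-HCl pH 7.5 buffer with KCl, MgCl2, BSA, DTT, tRNA and Tween-20. Titrations ran without input, with 200 uM small-molecule ligand, or with an oligonucleotide input. The apparent KD of each design is the median over its clusters, after curve-fitting of normalised cluster fluorescence.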

[1] = Eterna round: R95, input ligand: microRNA oligo, concentration not stated
[2] = Eterna round: R95, input ligand: FMN 200 uM
[3] = Eterna round: R95, input ligand: none
[4] = input ligand: microRNA oligo, concentration not stated

For “AAGUAGUGUGUGAGGAUAUUGGUGGAAUGACACAUUAAGAAGGCACAUGAGGAUCACCCAUGUGGGUAGACACG [Brourd's EX4 #21] (Eterna round: R97, puzzle: Brourd's mod of Exclusion 4)”, the “apparent KD of MS2 coat protein” value (input ligand: FMN 200 uM) was 335 nM and the “apparent KD of MS2 coat protein” value (input ligand: none) was 27.8 nM.
In the case of “AAGUAUAGAGGAUAUAGUAAGUACUACAUGAGGAUCACCCAUGUUCUUCAUUACGUAUUUCUAGAAGGCUGAUAAA [EX-5 Malc#25] (puzzle: Exclusion 5)”, the “apparent KD of MS2 coat protein” value [1] is reported as 369 nM.
In the case of “AAGUAUAGAGGAUAUAGUAGUUACAACAUGAGGAUCACCCAUGUUCUUCAUAGCGUAGAUCUAGAAGGCUGAUAAA [EX-5 Malc#30] (puzzle: Exclusion 5)”, the “apparent KD of MS2 coat protein” value [2] is reported as 265 nM, the “apparent KD of MS2 coat protein” value [1] is reported as 110 nM and the “apparent KD of MS2 coat protein” value [3] is reported as 119 nM.
With “AAGUAUAGAGGAUAUAGUGAGUACUACAUGAGGAUCACCCAUGUUCUUCAAAACGUAUUUCUAGAAGGCUGAUAAA [EX-5 Malc#21] (puzzle: Exclusion 5)” the “apparent KD of MS2 coat protein” value [2] was 110 nM, the “apparent KD of MS2 coat protein” value [1] was 47.8 nM and the “apparent KD of MS2 coat protein” value [3] was 59.1 nM.
In the case of “AAGUAUAGAGGAUAUAGUGAGUACUACAUGAGGAUCACCCAUGUUCUUCAAAGCGUACUUCUAGAAGGCUGAUAAA [EX-5 Malc#16] (puzzle: Exclusion 5)”, the “apparent KD of MS2 coat protein” value [2] is reported as 381 nM, the “apparent KD of MS2 coat protein” value [1] is reported as 251 nM and the “apparent KD of MS2 coat protein” value [3] is reported as 208 nM.
“AAGUAUAGAGGAUAUAGUGAGUACUACAUGAGGAUCACCCAUGUUCUUCACAGCGUAUUUCUAGAAGGCUGUUAAA [EX-5 Malc#19] (puzzle: Exclusion 5)” was tested, and the “apparent KD of MS2 coat protein” value [2] was 29.6 nM, the “apparent KD of MS2 coat protein” value [1] was 26.5 nM and the “apparent KD of MS2 coat protein” value [3] was 26.4 nM.
For “AAGUCAUUAGGAUAUGAAUAGGGAGACAUGAGGAUCACCCAUGUUGAUAGAACGACAUGUUCAGAAGGAGUCGCUG [Eternabot (L1) Solution 45] (Eterna round: R97, puzzle: Exclusion 5)”, the “apparent KD of MS2 coat protein” value (input ligand: FMN 200 uM) was 33.7 nM and the “apparent KD of MS2 coat protein” value (input ligand: none) was 33 nM.
With “AAGUCGAGCGUGAGGAUAUCGUUCGAACGACCGAACGAGAAGGCACAUGAGGAUCACCCAUGUGAUUCAGCUCA [Brourd's EX4 #47] (Eterna round: R97, puzzle: Brourd's mod of Exclusion 4)” the “apparent KD of MS2 coat protein” value (input ligand: FMN 200 uM) was 93.6 nM and the “apparent KD of MS2 coat protein” value (input ligand: none) was 19.7 nM.
For “AAGUGUGCCUAGGAUAUGUUCGGCCAAGGUCAUACAGAAGGAGGCACAUGAGGAUCACCCAUGUAGUGUCCAAC [Orririvebe] (puzzle: Exclusion 6)”, the “apparent KD of MS2 coat protein” value [1] was 88.1 nM.
For “AAGUUGCGAGGAUAUCGUAAGAUGGACAUGAGGAUCACCCAUGUGGUGCUUUUUUAUUGGCGAGAAGGCGCAUAAA [Zaiseren] (puzzle: Exclusion 5)”, the “apparent KD of MS2 coat protein” value [2] was 134 nM, the “apparent KD of MS2 coat protein” value [1] was 166 nM and the “apparent KD of MS2 coat protein” value [3] was 164 nM.
“AAUAAAACAUAGGAUAUCGAAUUUAUCAUUUAACGAGAAGGAUGAACAUGAGGAUCACCCAUGUGGUAUCAUGG [Mat - Exclusion 6 - JL Mod - D7] (puzzle: Exclusion 6)” was tested, and the “apparent KD of MS2 coat protein” value [2] was 168 nM, the “apparent KD of MS2 coat protein” value [1] was 244 nM and the “apparent KD of MS2 coat protein” value [3] was 216 nM.
In the case of “AAUAAACAUGAGGAUCACCCAUGUGAGGAUAUCGAAAUAAAUAAUAAAAUAAAUAAAACGAGAAGGCACAAUAA [JMF most obvious solution 3] (puzzle: Exclusion 1)”, the “apparent KD of MS2 coat protein” value [2] is reported as 40.4 nM, the “apparent KD of MS2 coat protein” value [1] is reported as 46.2 nM and the “apparent KD of MS2 coat protein” value [3] is reported as 47.5 nM.
For “AAUAAACAUGAGGAUCACCCAUGUGAGGAUAUGCAAAUAAAUAAUAAAAUAAAUAAAAGCAGAAGGCACAAUAA [JMF most obvious solution 1] (puzzle: Exclusion 1)”, the “apparent KD of MS2 coat protein” value [2] was 31.5 nM, the “apparent KD of MS2 coat protein” value [1] was 35 nM and the “apparent KD of MS2 coat protein” value [3] was 30.9 nM.
“AAUAAACGAGGAUAUACUAAAAUAUGAAUAAAAUAAAUAAAACAUGAGGAUCACCCAUGUAGAAGGCGUAAUAA [JMF's Not so obvious solution 4] (puzzle: Exclusion 2)” was tested, and the “apparent KD of MS2 coat protein” value [2] was 21.3 nM, the “apparent KD of MS2 coat protein” value [1] was 23.4 nM and the “apparent KD of MS2 coat protein” value [3] was 21.4 nM.
“AAUAAAGUAGGAUAUCGGCCAGCGAACAUGAGGAUCACCCAUGUGAUGCCGUGCCGACGCCGAGAAGGGCUUAAAA [Usceisma] (puzzle: Exclusion 5)” was tested, and the “apparent KD of MS2 coat protein” value [2] was 13.5 nM, the “apparent KD of MS2 coat protein” value [1] was 12 nM and the “apparent KD of MS2 coat protein” value [3] was 12.1 nM.
“AAUAAAUAAGCAGGAUCCUACAUGAGGAUCACCCAUGUGCUCGUCUUAUAAAGUACUAUCACGAAAGUGAUAGUACA [Mat - Sensor v3 - turn-off var 1 - Eli Mod - D75] (puzzle: Sensor v3, turn-off variant 1)” was tested, and the “apparent KD of MS2 coat protein” value [2] was 115 nM, the “apparent KD of MS2 coat protein” value [1] was 103 nM and the “apparent KD of MS2 coat protein” value [3] was 145 nM.
In the case of “AAUAACAAGCAAGAUCCUAACAUGAGGAUCACCCAUGUGCUCGUCUUGUAAAGUACUAUCACGAAAGUGAUAGUACA [Sensor 3, v1 - 48] (Eterna round: R96, puzzle: Sensor v3, turn-off variant 1)”, the “apparent KD of MS2 coat protein” value (input ligand: FMN 200 uM) is reported as 22.3 nM, the “apparent KD of MS2 coat protein” value [4] is reported as 437 nM and the “apparent KD of MS2 coat protein” value (input ligand: none) is reported as 25.5 nM.
“AAUAACAAGCAAGAUCCUAACAUGAGGAUCACCCAUGUGCUCGUCUUGUAAAGUACUAUCACGAAAGUGAUAGUACA [Sensor 3, v1 - 48] (puzzle: Sensor v3, turn-off variant 1)” was tested, and the “apparent KD of MS2 coat protein” value [2] was 20 nM, the “apparent KD of MS2 coat protein” value [1] was 723 nM and the “apparent KD of MS2 coat protein” value [3] was 22.1 nM.
“AAUAACAAGUGAGAUCCUAACAUGAGGAUCACCCAUGUGCUCGUCUUAUAAAGUACUAUCACGAAAGUGAUAGUACA [Sensor 3, v1 - 54] (puzzle: Sensor v3, turn-off variant 1)” was tested, and the “apparent KD of MS2 coat protein” value [2] was 117 nM, the “apparent KD of MS2 coat protein” value [1] was 7.29 nM and the “apparent KD of MS2 coat protein” value [3] was 70.6 nM.
With “AAUAACAGAGGAUAUACGAAAAUAAGCGGAAACGCAAAGGGACAUGAGGAUCACCCAUGUAGAAGGCUGGAUAA [Tetraloop... 61% 2] (Eterna round: R96, puzzle: Exclusion 2)” the “apparent KD of MS2 coat protein” value (input ligand: FMN 200 uM) was 204 nM, the “apparent KD of MS2 coat protein” value [4] was 19.6 nM and the “apparent KD of MS2 coat protein” value (input ligand: none) was 34.2 nM.
In the case of “AAUAACAGAGGAUAUACUAUUUUAUGUGUUUAUUGUUUUGAACAUGAGGAUCACCCAUGUAGAAGGCUGAAUAA [JMF 24] (puzzle: Exclusion 2)”, the “apparent KD of MS2 coat protein” value [1] is reported as 22.3 nM.
In the case of “AAUAACAGAGGAUAUACUAUUUUAUGUGUUUAUUGUUUUGAACAUGAGGAUCACCCAUGUAGAAGGCUGAUUGA [JMF 78] (puzzle: Exclusion 2)”, the “apparent KD of MS2 coat protein” value [1] is reported as 40.7 nM.
In the case of “AAUAACAGAGGAUAUACUGUUUUAUGUAUUUAUUAUUUUAAACAUGAGGAUCACCCAUGUAGAAGGCUGAUUAA [JMF 43] (puzzle: Exclusion 2)”, the “apparent KD of MS2 coat protein” value [1] is reported as 27.4 nM.
In the case of “AAUAACAGAGGAUAUACUGUUUUAUGUGUUUGUUAUUUUAAACAUGAGGAUCACCCAUGUAGAAGGCUGAAUGA [JMF 57] (puzzle: Exclusion 2)”, the “apparent KD of MS2 coat protein” value [1] is reported as 22 nM.
In the case of “AAUAACAGAGGAUAUACUGUUUUAUGUGUUUGUUGUUUUAAACAUGAGGAUCACCCAUGUAGAAGGCUGAGUAA [JMF 34] (puzzle: Exclusion 2)”, the “apparent KD of MS2 coat protein” value [1] is reported as 21 nM.
With “AAUAAGUGAGGAUAUACGUCUGGACCCGGGAGGGCUAUAUAACAUGAGGAUCACCCAUGUAGAAGGCACAAUAA [Excls2-IV] (puzzle: Exclusion 2)” the “apparent KD of MS2 coat protein” value [1] was 16.2 nM.
With “AAUAAGUGAGGAUAUGCGUCUGGUCCCGGGAGGGCUAUAUAACAUGAGGAUCACCCAUGUAGAAGGCACAAUAA [Excls2IV] (puzzle: Exclusion 2)” the “apparent KD of MS2 coat protein” value [1] was 15.2 nM.
In the case of “AAUAAUAAAGUCAGGAUAUCUAGAGCUUCGGCUCUAGAGAAGGGACAUGAGGAUCACCCAUGUCACUCAAUAAU [BmEx4/3-D1] (Eterna round: R97, puzzle: Brourd's mod of Exclusion 4)”, the “apparent KD of MS2 coat protein” value (input ligand: FMN 200 uM) is reported as 21.6 nM and the “apparent KD of MS2 coat protein” value (input ligand: none) is reported as 15.1 nM.
For “AAUAAUAAUGUGAGGAUAUCUAGAGCCUCGGCUCUAGAGAAGGCACAUGAGGAUCACCCAUGUCUCAAUAAUAA [BmEx4/2-E5] (Eterna round: R97, puzzle: Brourd's mod of Exclusion 4)”, the “apparent KD of MS2 coat protein” value (input ligand: FMN 200 uM) was 307 nM and the “apparent KD of MS2 coat protein” value (input ligand: none) was 52.8 nM.
“AAUAAUGAUAAGGAUAUCACUAGCGAUAGCUAGUGAGAAGGUAUCACAUGAGGAUCACCCAUGUGUUCCAAUAA [Ex6/6-A4] (Eterna round: R97, puzzle: Exclusion 6)” was tested, and the “apparent KD of MS2 coat protein” value (input ligand: FMN 200 uM) was 35.2 nM and the “apparent KD of MS2 coat protein” value (input ligand: none) was 17 nM.
With “AAUAAUGGAGGAUAUACUAAAAUAUGAAUAAAAUAAAUAAAACAUGAGGAUCACCCAUGUAGAAGGCCAAAUAA [JMF's Not so obvious solution 2] (puzzle: Exclusion 2)” the “apparent KD of MS2 coat protein” value [2] was 20.9 nM, the “apparent KD of MS2 coat protein” value [1] was 22.7 nM and the “apparent KD of MS2 coat protein” value [3] was 27.7 nM.
With “AAUAAUUGUGACAUGGGCGACAUGAGGAUCACCCAUGUUACAAGCUUGUUGCUCGUCUUAUAAUUAACCCAUGUCAC [LRO Sensor-off var1-22 mod of Stov1-13-A1 by Brourd] (Eterna round: R97, puzzle: Sensor, turn-off variant 1)” the “apparent KD of MS2 coat protein” value (input ligand: FMN 200 uM) was 16.3 nM and the “apparent KD of MS2 coat protein” value (input ligand: none) was 15.2 nM.
